Results as given in publication PMC3306407, “A Single-Stranded DNA Aptamer That Selectively Binds to Staphylococcus aureus Enterotoxin B”.

Experiments:
[1] = target: staphylococcal enterotoxin B (SEB) (Staphylococcus aureus, UniProt P01552 28-266)
[2] = target: staphylococcal enterotoxin C2 (SEC2) (Staphylococcus aureus, UniProt P34071 28-266)
[3] = target: staphylococcal enterotoxin C3 (SEC3) (Staphylococcus aureus, UniProt P0A0L5 28-266)
[4] = target: staphylococcal enterotoxin C1 (SEC1) (Staphylococcus aureus, UniProt P01553 28-266)

B1: APTSEB1 (ssDNA)
DNA: GGTATTGAGGGTCGCATCCACTGGTCGTTGTTGTCTGTTGTCTGTTATGTTGTTTCGTGATGGCTCTAACTCTCCTCT
B1: binds [1]; no binding [2]; no binding [3]. B1: no binding [4].
